This is an account of results in PMC4513882.

The target of this data set is SAMHD1 wt (human) (UniProt Q9Y3Z3). The data set is described as follows: AFM.
SAMHD1 wt (human), sequence (Q9Y3Z3 whole entry): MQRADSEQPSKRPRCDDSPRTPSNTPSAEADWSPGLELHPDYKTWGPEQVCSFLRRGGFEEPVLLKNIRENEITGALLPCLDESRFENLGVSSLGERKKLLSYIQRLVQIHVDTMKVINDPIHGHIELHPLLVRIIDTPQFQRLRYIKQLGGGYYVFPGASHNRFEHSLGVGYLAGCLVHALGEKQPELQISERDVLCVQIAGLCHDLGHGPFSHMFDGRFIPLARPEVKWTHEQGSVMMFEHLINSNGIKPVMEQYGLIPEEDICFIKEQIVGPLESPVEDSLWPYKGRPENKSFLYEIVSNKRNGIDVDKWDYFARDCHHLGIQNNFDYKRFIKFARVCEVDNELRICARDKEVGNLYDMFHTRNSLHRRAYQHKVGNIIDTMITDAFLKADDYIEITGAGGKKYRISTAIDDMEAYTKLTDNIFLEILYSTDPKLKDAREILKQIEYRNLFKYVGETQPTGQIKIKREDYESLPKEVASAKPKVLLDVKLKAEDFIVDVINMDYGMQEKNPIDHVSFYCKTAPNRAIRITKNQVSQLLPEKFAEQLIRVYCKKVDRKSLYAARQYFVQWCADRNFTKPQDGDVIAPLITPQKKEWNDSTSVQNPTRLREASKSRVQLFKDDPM

In turn, “GGUUAUUCUCUUAUUUAUUCUAUCUAUCUCUCUCUUCUCUAUUUCCUCACAUCCUCUCUCACUCUCUAUCUCUAUCUCCUCUCUCUUCUCUCUCUCUCUCUCUCCUCUCUAUAUUCUUCUCUCUUCUCUCCUCUCCUCUCUCUCUCUCUUUAUUCUUCCACUUUUUUCCUUCUCACUUCUCUUCUUCUUUAUUCUUCUCAUCUCAUCUCAUCUCAUCUCAUCUCAUCUCAUCUCAUCUCAUCUCAUCUCAUCUCAUCUCAUCUCAUCUCAUCUCAUCUCAUCUCAUCUCAUCUCAUCUCAUCUCAGG / TGAGAAGAATAAAGAAGAAGAGAAGTGAGAAGGAAAAAAGTGGAAGAATAAAGAGAGAGAGAGAGGAGAGGAGAGAAGAGAGAAGAATATAGAGAGGAGAGAGAGAGAGAGAGAAGAGAGAGGAGATAGAGATAGAGAGTGAGAGAGGATGTGAGGAAATAGAGAAGAGAGAGATAGATAGAATAAATAAGAGAATAACC [AFM RNA, 200 bp RNA:DNA duplex with 102 nt ssRNA overhang]” yielded a binding signal (% ssRNA ends bound) of 84.

As to “AFM DNA, 295 bp duplex with 60 nt ssDNA overhang”, the binding signal (% ssDNA ends bound) came out at 26.
